Assay [1] has as its target T1, Methylglyoxal-modified human serum albumin (HSA-MG) (Homo sapiens, UniProt P02768). Description: ELISA (Scatchard plot).
For assay [2], the target named is T1, Methylglyoxal-modified human serum …. Description: peroxidase activity inhibition (ABTS varied).
For assay [3] the target is unchanged. In words: peroxidase activity inhibition (ABTS, H2O2 varied).
The target is the same in assay [4]. In words: chlorinating activity inhibition (celestine blue B, NaCl varied).
The target is the same in assay [5]. In words: chlorinating activity inhibition (celestine blue B, H2O2 varied).

B1: Myeloperoxidase (protein)
chain: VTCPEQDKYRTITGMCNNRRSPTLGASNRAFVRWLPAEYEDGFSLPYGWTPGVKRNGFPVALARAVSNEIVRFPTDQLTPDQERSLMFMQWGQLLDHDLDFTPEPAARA
modifications: methylglyoxal-modified HSA
In general, Kd refers to the free concentration of one partner at which half of the binding sites on the other are occupied at equilibrium, for simple one-to-one binding. For orientation: Ki means the equilibrium dissociation constant of an inhibitor or competing ligand from its target. A low value points to higher affinity. B1: the Kd in assay [1] stood at 1.5 nM. Also, the Ki worked out at 1080 nM in assay [2], 840 nM in assay [3], 940 nM in assay [4] and 800 nM in assay [5].

(Values after paper PMC9686918 (2022).)
